This passage reports response (PLA dots per cell) results from paper PMC10415120.

This assay deals with MDC1 (endogenous, HCT116) [human (endogenous in HCT116)]. The assay is described as follows: proximity ligation assay (PLA) in cells. Particulars: ESCO2 KD HCT116 cells, bleomycin treated; 30 cells counted per group; mean ± SEM; parent: 14; read off a plot.

In the case of “Flag-ESCO2 WT (in ESCO2 KD HCT116 cells) mutant S196A; T233A [human] / MDC1 (endogenous, HCT116) [human (endogenous in HCT116)] chain 1 S196A, chain 1 T233A”, the response (PLA dots per cell) was 0.5.
